Here are results for two substances from patent US20190177410A1.

For experiment [1], the target named is T1, full length cynomolgus APLNR (MfAPLNR) (cynomolgus (Macaca fascicularis)).
T1 sequence: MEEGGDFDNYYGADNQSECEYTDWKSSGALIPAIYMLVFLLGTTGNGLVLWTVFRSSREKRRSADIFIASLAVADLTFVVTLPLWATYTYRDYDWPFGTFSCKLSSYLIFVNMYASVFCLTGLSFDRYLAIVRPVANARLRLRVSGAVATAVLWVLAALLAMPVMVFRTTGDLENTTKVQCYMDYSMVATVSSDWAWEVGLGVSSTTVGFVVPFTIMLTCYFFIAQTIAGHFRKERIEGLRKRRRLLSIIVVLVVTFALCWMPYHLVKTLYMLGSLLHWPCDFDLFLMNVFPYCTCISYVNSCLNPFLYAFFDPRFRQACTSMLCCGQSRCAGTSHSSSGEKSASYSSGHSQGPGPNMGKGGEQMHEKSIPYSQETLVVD
Description: FACS, secondary antibody alone on HEK293/CRE-luc/MfAPLNR cells. (In general: In flow cytometry, cells or beads pass a laser one at a time.)

The target is the same in experiment [2]. Description: FACS, secondary antibody alone (4 ug/mL) on HEK293/CRE-luc/MfAPLNR cells.
Experiment [3] deals with full-length human APLNR (hAPLNR) (human) (UniProt P35414). In words: FACS, secondary antibody alone on HEK293/CRE-luc/hAPLNR cells.
For experiment [4] the target is unchanged. Description: FACS, secondary antibody alone (4 ug/mL) on HEK293/CRE-luc/hAPLNR cells.

On to “anti-human IgG antibody conjugated with Alexa 488 (secondary antibody alone)”, for which the Binding Ratio of Geom. Mean to Unstained Cells in experiment [1], in experiment [2], in experiment [3] and in experiment [4] was 2 fold each time.
With “anti-mouse IgG antibody conjugated with Alexa 647 (secondary antibody alone)”, the values for the Binding Ratio of Geom. Mean to Unstained Cells in experiment [2] and in experiment [4] were 3 fold and 4 fold, respectively.
